This test addresses OSCAR specific ligand expressed on the surface of primary murine osteoblast cells (murine). Put plainly: cell-based or functional assay.

The values that follow come from patent US20040092714A1.

Bounds are passed on as bounds.

As for “soluble murine OSCAR-Ig fusion polypeptide (extracellular domain of murine OSCAR fused to the Fc region of human IgG1) (Fc fusion)”, the dentine resorption pits per slice (pits per slice) turned out to be 7 and the inhibition of dentine resorption (fold) is over 10 fold.
